The record followed here is PMC5949987.

The target in one test is β2AR–Rluc8 (UniProt P07550). Briefly: FRET or BRET; intact HEK 293 cells with agonist; receptor–Rluc8 or receptor–Nluc as donor, NES–venus–mG as acceptor; net BRET; DPBS, 96-well plates.
The target of the next test is β2AR–SmBit (UniProt P07550). Briefly: split reporter (BiFC, NanoBiT); NanoLuc complementation in intact HEK 293 cells cotransfected with receptor–SmBit and LgBit–mG; total luminescence with furimazine against agonist concentration.
Another test concerns the target cerulean–β2AR (UniProt P07550). Briefly: calibrated confocal fluorescence intensities at the plasma membrane; HEK 293 cells expressing cerulean-β2AR and venus–mGs, 10 μM isoproterenol, steady state; venus and cerulean intensities calibrated with the standard protein cerulean–TM–venus; n = 17.

In the test with β2AR–Rluc8, NES–venus–mGs (domain or fragment) gave a time to dissociate after addition of the inverse agonist ICI 118,551 above 15 min. With LgBit–mGs, the fold increase in luminescence intensity on agonist stimulation with β2AR–SmBit was below 20 fold. Regarding venus–mGs (domain or fragment), in the test with cerulean–β2AR, the stoichiometry N (venus–mGs per cerulean–β2AR) worked out at 1.17.
